In paper PMC10992437, “Engineering a norcoclaurine synthase for one-step synthesis of (S)-1-aryl-tetrahydroisoquinolines” (Bioresources and Bioprocessing, 2023):

Experiments:
O=Cc1ccc(-c2ccccc2)cc1 = test: purified protein; type: biochemical, Thalictrum flavum; settings: co-substrate dopamine (concentration not stated), aldehyde 0.5-50 mM, general assay: HEPES pH 7.5, 20% DMSO, 5 mM ascorbic acid
O=Cc1ccccc1 = test: purified protein; type: biochemical, Thalictrum flavum; settings: co-substrate dopamine (concentration not stated), aldehyde 0.5-50 mM, general assay: HEPES pH 7.5, 20% DMSO, 5 mM ascorbic acid

Substance	Km (O=Cc1ccc(-c2ccccc2)cc1) [mM]	Km (O=Cc1ccccc1) [mM]
TfNCS (norcoclaurine synthase) (Thalictrum flavum subsp. glaucum; L68T/M97V)	14.6 ± 5.1	20.1 ± 5.3
TfNCS (norcoclaurine synthase) (Thalictrum flavum subsp. glaucum)	15.0 ± 4.6	22.3 ± 6.7
